Laboratory results: PMC6786761

Substrate: CN1CCC[C@@H]1c1cccnc1
Assay: oxygen electrode, initial rates
Type: biochemical, Paenarthrobacter nicotinovorans
Settings: 0.1 M Na-HEPES pH 8.0, 0.1 M NaCl, 25 °C, 250 μM O2, apparent

B1: D-6-hydroxynicotine oxidase (DHNO) (Paenarthrobacter nicotinovorans) (protein)
chain: MSSKLATPLSIQGEVIYPDDSGFDAIANIWDGRHLQRPSLIARCLSAGDVAKSVRYACDNGLEISVRSGGHNPNGYATNDGGIVLDLRLMNSIHIDTAGSRARIGGGVISGDLVKEAAKFGLAAVTGMHPKVGFCGLALNGGVGFLTPKYGLASDNILGATLVTATGDVIYCSDDERPELFWAVRGAGPNFGVVTEVEVQLYELPRKMLAGFITWAPSVSELAGLLTSLLDALNEMADHIYPSVFVGVDENRAPSVTVCVGHLGGLDIAERDIARLRGLGRTVSDSIAVRSYDEVVALNAEVGSFEDGMSNLWIDREIAMPNARFAEAIAGNLDKFVSEPASGGSVKLEIEGMPFGNPKRTPARHRDAMGVLALAEWSGAAPGSEKYPELARELDAALLRAGVTTSGFGLLNNNSEVTAEMVAEVYKPEVYCRLAAVKREYDPENRFRHNYNIDPEGS
Work on B1 yielded a Km of 840 ± 120 µM.
